Data reported in US20120177664A1 (IMMUNAS PHARMA, published 2012).

B1: IR-028 antibody (antibody, V domains shown)
VH: DVQLVESGGGLVQPGGSRKLSCAASGFTFSSFGMHWVRQAPEKGLEWVAYISSGSSTIYYADTVKGRFTISRDNPKNTLFLQMTSLRSEDTAMYYCARTGTGAMDYWGQGTSVTVSS
VL: DVVMTQTPLSLPVSLGDQASISCRSSQSLVHSNGNTYLHWYLQKPGQSPKLLIYKVSNRFSGVPDRFSGSGSGTDFTLKISRVEAEDLGVYFCSQSTHVPPTFGGGTKLEIK
notes: mouse IgG2b
B2: IR-057 antibody (antibody, mouse IgG1, V domains shown)
VH: DVQLVESGGGLVQPGGSRKLSCAASGFTFSSFGMHWVRQAPEKGLEWVAYISSGSSTIYYADTVKGRFTISRDNPKNTLFLQMTSLRSEDTAMYYCARYGNYAMDYWGQGTSVTVSS
VL: DVLMTQTPLSLPVSLGDQASISCRSSQSIVHSNGNTYLEWYLQKPGQSPKLLIYKVSNRFSGVPDRFSGSGSGTDFTLKISRVEAEDLGVYYCFQGSHVPPTFGGGTKLEIK
notes: mouse IgG1
B3: IR-062 antibody (antibody, mouse IgG2b, V domains shown)
VH: DVQLVESGGGLVQPGGSRKLSCAASGFTFSSFGMHWVRQAPEKGLEWVAYISSGSSTIYYADTVKGRFTISRDNPKNTLFLQMTSLRSEDTAMYYCARYYHYAMDYWGQGTSVTVSS
VL: DVLMTQTPLSLPVSLGDQASISCRSSQSIVHSNGNTYLEWYLQKPGQSPKLLIYKVSNRFSGVPDRFSGSGSGTDFTLKISRVEAEDLGVYYCFQGSHVPPTFGGGTKLEIK
notes: mouse IgG2b
B4: IR-121 antibody (antibody, mouse IgG2b, V domains shown)
VH: DVQLVESGGGLVQPGGSRKLSCAASGFTFSSFGMHWVRQAPEKGLEWVAYISSGSSTIYYADTVKGRFTISRDNPKNTLFLQMTSLRSEDTAMYYCATYGIYAMDYWGQGTSVTVSS
VL: DVLMTQTPLSLPVSLGDQASISCRSSQSIVHSNGNTYLEWYLQKPGQSPKLLIYKVSNRFSGVPDRFSGSGSGTDFTLKISRVEAEDLGVYYCFQGSHVPPTFGGGTKLEIK
notes: mouse IgG2b
B5: IR-124 antibody (antibody, mouse IgG2a, V domains shown)
VH: DVQLVESGGGLVQPGGSRKLSCAASGFTFSSFGMHWVRQAPEKGLEWVAYISSGSSTIYYADTVKGRFTISRDNPKNTLFLQMTSLRSEDTAMYYCAIYYYGSSYYWGQGTTLTVSS
VL: DVLMTQTPLSLPVSLGDQASISCRSSQSIVHSNGNTYLEWYLQKPGQSPKLLIYKVSNRFSGVPDRFSGSGSGTDFTLKISRVEAEDLGVYYCFQGSHVPPTFGAGTKLELK
notes: mouse IgG2a
B6: IR-146 antibody (antibody, mouse IgG2a, V domains shown)
VH: DVQLVESGGGLVQPGGSRKLSCAASGFTFSSFGMHWVRQAPEKGLEWVAYISSGSSTIYYADTVKGRFTISRDNPKNTLFLQMTSLRSEDTAMYYCARGGTGAMDYWGQGTSVTVSS
VL: DVLMTQTPLSLPVSLGDQASISCRSSQSIVHSNGNTYLEWYLQKPGQSPKLLIYKVSNRFSGVPDRFSGSGSGTDFTLKISRVEAEDLGVYYCFQGSHVPPTFGGGTKLEIK
notes: mouse IgG2a
B7: IR-036 antibody (antibody, mouse IgG2b, V domains shown)
VH: QVTLKESGPGILQPSQTLSLTCSFSGFSLSTSGMGVSWIRQPSGKGLEWLAHIYWDDDKRYNPSLKSRLTISKDTSRNQVFLKITSVDTADTATYYCARRANYYGYGMDAMDYWGQGTSVTVSS
VL: DVLMTQTPLSLPVSLGDQASISCRSSQSIVHSNGNTYLEWYLQKPGQSPKLLIYKVSNRFSGVPDRFSGSGSGTDFTLKISRVEAEDLGVYYCFQGSHVPLTFGAGTKLELK
notes: mouse IgG2b
B8: IR-095 antibody (antibody, mouse IgG2b, V domains shown)
VH: QVTLKESGPGILQPSQTLSLTCSFSGFSLSTSGMGVSWIRQPSGKGLEWLAHIYWDDDKRYNPSLKSRLTISKDTSRNQVFLKITSVDTADTATYYCARRAPRLYYGYDAMDYWGQGTSVTVSS
VL: DVLMTQTPLSLPVSLGDQASISCRSSQSIVHSNGNTYLEWYLQKPGQSPKLLIYKVSNRFSGVPDRFSGSGSGTDFTLKISRVEAEDLGVYYCFQGSHVPLTFGAGTKLELK
notes: mouse IgG2b
B9: IR-037 antibody (antibody, mouse IgG1, V domains shown)
VH: DVQLVESGGGLVQPGGSRKLSCAASGFTFSSFGMHWVRQAPEKGLEWVAYISSGSSTIYYADTVKGRFTISRDNPKNTLFLQMTSLRSEDTAMYYCARDGTMDYWGQGTSVTVSS
VL: DAVMTQTPLSLPVSLGDQASISCRSSQSLENSNGNTYLNWYLQKPGQSPQLLIYRVSNRFSGVLDRFSGSGSGTDFTLKISRVEAEDLGVYFCLQVTHVPPTFGGGTKLEIK
notes: mouse IgG1
B10: IR-038 antibody (antibody, mouse IgG2b, V domains shown)
VH: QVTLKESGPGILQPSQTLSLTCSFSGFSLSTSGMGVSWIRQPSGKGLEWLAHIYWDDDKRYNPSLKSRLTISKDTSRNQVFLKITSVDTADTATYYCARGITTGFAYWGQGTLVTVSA
VL: DVLMTQTPLSLPVSLGDQASISCRSSQSIVHSNGNTYLEWYLQKPGQSPKLLIYKVSNRFSGVPDRFSGSGSGTDFTLKISRVEAEDLGVYYCFQGSHVPLTFGAGTKLELK
notes: mouse IgG2b
B11: IR-041 antibody (antibody, mouse IgG2a, V domains shown)
VH: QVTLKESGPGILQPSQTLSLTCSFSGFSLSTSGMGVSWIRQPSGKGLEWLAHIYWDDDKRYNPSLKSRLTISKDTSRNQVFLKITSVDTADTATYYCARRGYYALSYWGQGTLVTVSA
VL: DVLMTQTPLSLPVSLGDQASISCRSSQSIVHSNGNTYLEWYLQKPGQSPKLLIYKVSNRFSGVPDRFSGSGSGTDFTLKISRVEAEDLGVYYCFQGSHVPLTFGAGTKLELK
notes: mouse IgG2a
B12: IR-039 antibody (antibody, mouse IgG2b, V domains shown)
VH: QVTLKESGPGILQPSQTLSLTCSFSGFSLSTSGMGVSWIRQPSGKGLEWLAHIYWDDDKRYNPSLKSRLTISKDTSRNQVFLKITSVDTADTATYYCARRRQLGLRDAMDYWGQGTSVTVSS
VL: DVLMTQTPLSLPVSLGDQASISCRSSQSIVHSNGNTYLEWYLQKPGQSPKLLIYKVSNRFSGVPDRFSGSGSGTDFTLKISRVEAEDLGVYYCFQGSHVPLTFGAGTKLELK
notes: mouse IgG2b
B13: IR-060 antibody (antibody, mouse IgG2a, V domains shown)
VH: DVQLVESGGGLVQPGGSRKLSCAASGFTFSSFGMHWVRQAPEKGLEWVAYISSGSSTIYYADTVKGRFTISRDNPKNTLFLQMTSLRSEDTAMYYCARGGNYLRYYAMDYWGQGTSVTVSS
VL: DVLMTQTPLSLPVSLGDQASISCRSSQSIVHSNGNTYLEWYLQKPGQSPKLLIYKVSNRFSGVPDRFSGSGSGTDFTLKISRVEAEDLGVYYCFQGSHVPLTFGAGTKLELK
notes: mouse IgG2a
B14: IR-077 antibody (antibody, mouse IgG2a, V domains shown)
VH: DVQLVESGGGLVQPGGSRKLSCAASGFTFSSFGMHWVRQAPEKGLEWVAYISSGSSTIYYADTVKGRFTISRDNPKNTLFLQMTSLRSEDTAMYYCARSGYRYSYYAMDYWGQGTSVTVSS
VL: DVLMTQTPLSLPVSLGDQASISCRSSQSIVHSNGNTYLEWYLQKPGQSPKLLIYKVSNRFSGVPDRFSGSGSGTDFTLKISRVEAEDLGVYYCFQGSHVPLTFGAGTKLELK
notes: mouse IgG2a
B15: IR-125 antibody (antibody, mouse IgG2b, V domains shown)
VH: DVQLVESGGGLVQPGGSRKLSCAASGFTFSSFGMHWVRQAPEKGLEWVAYISSGSSTIYYADTVKGRFTISRDNPKNTLFLQMTSLRSEDTAMYYCARAGGYSLSYAMDYWGQGTSVTVSS
VL: DVLMTQTPLSLPVSLGDQASISCRSSQSIVHSNGNTYLEWYLQKPGQSPKLLIYKVSNRFSGVPDRFSGSGSGTDFTLKISRVEAEDLGVYYCFQGSHVPPTFGGGTKLEIK
notes: mouse IgG2b

target: T1, A beta oligomer (synthetic A beta1-40, HCl form, 0.1 mg/ml in PBS, incubated at 37 degrees C for one hour) (UniProt P05067 672-711); experiment: SPR (Biacore 3000)
T1 construct: domain: A beta1-40; non-fibrous multimer of the peptide; also called A beta 1-40 oligomer
Experimental: The analysis was carried out by Surface Plasmon Resonance (SPR) using Biacore 3000 (GE Healthcare Sciences).

Row | Binder | Kd | koff | kon
1 | B1 | 852 nM | 0.27 s⁻¹ | 317000 M⁻¹ s⁻¹
2 | B2 | 156 nM | 0.0579 s⁻¹ | 370000 M⁻¹ s⁻¹
3 | B3 | 364 nM | 0.139 s⁻¹ | 382000 M⁻¹ s⁻¹
4 | B4 | 84.2 nM | 0.00831 s⁻¹ | 98700 M⁻¹ s⁻¹
5 | B5 | 141 nM | 0.00995 s⁻¹ | 70400 M⁻¹ s⁻¹
6 | B6 | 1060 nM | 0.383 s⁻¹ | 361000 M⁻¹ s⁻¹
7 | B7 | 100 nM | 0.00876 s⁻¹ | 87600 M⁻¹ s⁻¹
8 | B8 | 35 nM | 0.00331 s⁻¹ | 94600 M⁻¹ s⁻¹
9 | B9 | 659 nM | 0.0609 s⁻¹ | 92400 M⁻¹ s⁻¹
10 | B10 | 84.3 nM | 0.00752 s⁻¹ | 89200 M⁻¹ s⁻¹
11 | B11 | 1370 nM | 0.0949 s⁻¹ | 69400 M⁻¹ s⁻¹
12 | B12 | 47.4 nM | 0.00711 s⁻¹ | 150000 M⁻¹ s⁻¹
13 | B13 | 2610 nM | 0.2 s⁻¹ | 76700 M⁻¹ s⁻¹
14 | B14 | 550 nM | 0.153 s⁻¹ | 278000 M⁻¹ s⁻¹
15 | B15 | 78.8 nM | 0.00395 s⁻¹ | 50100 M⁻¹ s⁻¹
